B1: Isoform 1 of Aminoacylase-1 (Homo sapiens), Q03154-1 (parent)
chain: MTSKGPEEEHPSVTLFRQYLRIRTVQPKPDYGAAVAFFEETARQLGLGCQKVEVAPGYVVTVLTWPGTNPTLSSILLNSHTDVVPVFKEHWSHDPFEAFKDSEGYIYARGAQDMKCVSIQYLEAVRRLKVEGHRFPRTIHMTFVPDEEVGGHQGMELFVQRPEFHALRAGFALDEGIANPTDAFTVFYSERSPWWVRVTSTGRPGHASRFMEDTAAEKLHKVVNSILAFREKEWQRLQSNPHLKEGSVTSVNLTKLEGGVAYNVIPATMSASFDFRVAPDVDFKAFEEQLQSWCQAAGEGVTLEFAQKWMHPQVTPTDDSNPWWAAFSRVCKDMNLTLEPEIMPAATDNRYIRAVGVPALGFSPMNRTPVLLHDHDERLHEAVFLRGVDIYTRLLPALASVPALPSDS
partner: B1 chain
B2: PDZ and LIM domain protein 3 (Homo sapiens), Q53GG5 (parent)
chain: MPQTVILPGPAPWGFRLSGGIDFNQPLVITRITPGSKAAAANLCPGDVILAIDGFGTESMTHADAQDRIKAAAHQLCLKIDRGETHLWSPQVSEDGKAHPFKINLESEPQDGNYFEHKHNIRPKPFVIPGRSSGCSTPSGIDCGSGRSTPSSVSTVSTICPGDLKVAAKLAPNIPLEMELPGVKIVHAQFNTPMQLYSDDNIMETLQGQVSTALGETPLMSEPTASVPPESDVYRMLHDNRNEPTQPRQSGSFRVLQGMVDDGSDDRPAGTRSVRAPVTKVHGGSGGAQRMPLCDKCGSGIVGAVVKARDKYRHPECFVCADCNLNLKQKGYFFIEGELYCETHARARTKPPEGYDTVTLYPKA
B3: C-type lectin domain family 1 member A (Homo sapiens), Q8NC01 (parent)
chain: MQAKYSSTRDMLDDDGDTTMSLHSQGSATTRHPEPRRTEHRAPSSTWRPVALTLLTLCLVLLIGLAALGLLFFQYYQLSNTGQDTISQMEERLGNTSQELQSLQVQNIKLAGSLQHVAEKLCRELYNKAGAHRCSPCTEQWKWHGDNCYQFYKDSKSWEDCKYFCLSENSTMLKINKQEDLEFAASQSYSEFFYSYWTGLLRPDSGKAWLWMDGTPFTSELFHIIIDVTSPRSRDCVAILNGMIFSKDCKELKRCVCERRAGMVKPESLHVPPETLGEGD
partner: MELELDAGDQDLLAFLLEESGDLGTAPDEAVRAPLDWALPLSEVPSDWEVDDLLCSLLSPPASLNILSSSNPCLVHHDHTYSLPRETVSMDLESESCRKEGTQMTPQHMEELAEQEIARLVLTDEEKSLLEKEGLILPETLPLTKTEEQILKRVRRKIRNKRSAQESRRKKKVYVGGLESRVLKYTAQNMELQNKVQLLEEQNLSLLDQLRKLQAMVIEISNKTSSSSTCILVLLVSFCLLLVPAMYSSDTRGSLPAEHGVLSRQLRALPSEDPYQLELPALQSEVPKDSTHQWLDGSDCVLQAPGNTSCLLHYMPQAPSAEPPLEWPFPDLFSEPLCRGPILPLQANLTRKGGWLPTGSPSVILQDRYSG
B4: Alpha-ketoglutarate-dependent dioxygenase alkB homolog 3 (Homo sapiens), Q96Q83 (parent)
chain: MEEKRRRARVQGAWAAPVKSQAIAQPATTAKSHLHQKPGQTWKNKEHHLSDREFVFKEPQQVVRRAPEPRVIDREGVYEISLSPTGVSRVCLYPGFVDVKEADWILEQLCQDVPWKQRTGIREDITYQQPRLTAWYGELPYTYSRITMEPNPHWHPVLRTLKNRIEENTGHTFNSLLCNLYRNEKDSVDWHSDDEPSLGRCPIIASLSFGATRTFEMRKKPPPEENGDYTYVERVKIPLDHGTLLIMEGATQADWQHRVPKEYHSREPRVNLTFRTVYPDPRGAPW
B5: Four and a half LIM domains protein 2 (Homo sapiens), Q14192 (parent)
chain: MTERFDCHHCNESLFGKKYILREESPYCVVCFETLFANTCEECGKPIGCDCKDLSYKDRHWHEACFHCSQCRNSLVDKPFAAKEDQLLCTDCYSNEYSSKCQECKKTIMPGTRKMEYKGSSWHETCFICHRCQQPIGTKSFIPKDNQNFCVPCYEKQHAMQCVQCKKPITTGGVTYREQPWHKECFVCTACRKQLSGQRFTARDDFAYCLNCFCDLYAKKCAGCTNPISGLGGTKYISFEERQWHNDCFNCKKCSLSLVGRGFLTERDDILCPDCGKDI
partner: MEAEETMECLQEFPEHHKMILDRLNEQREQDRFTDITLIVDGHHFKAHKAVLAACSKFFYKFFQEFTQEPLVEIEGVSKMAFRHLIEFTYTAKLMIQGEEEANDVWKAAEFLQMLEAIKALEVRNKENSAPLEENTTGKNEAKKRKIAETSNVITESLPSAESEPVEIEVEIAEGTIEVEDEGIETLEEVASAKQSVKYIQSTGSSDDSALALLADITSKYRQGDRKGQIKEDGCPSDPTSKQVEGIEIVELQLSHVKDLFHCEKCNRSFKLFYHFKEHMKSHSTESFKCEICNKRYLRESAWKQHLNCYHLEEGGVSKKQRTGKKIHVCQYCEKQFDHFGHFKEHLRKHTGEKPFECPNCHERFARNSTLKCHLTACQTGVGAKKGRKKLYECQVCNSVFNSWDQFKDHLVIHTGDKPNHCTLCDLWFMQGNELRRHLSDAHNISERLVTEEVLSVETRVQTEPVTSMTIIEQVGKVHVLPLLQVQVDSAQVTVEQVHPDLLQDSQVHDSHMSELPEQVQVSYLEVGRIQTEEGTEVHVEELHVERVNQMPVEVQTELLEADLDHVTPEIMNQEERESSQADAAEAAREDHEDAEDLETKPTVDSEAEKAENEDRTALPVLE
B6: G-patch domain and KOW motifs-containing protein (Homo sapiens), Q92917 (parent)
chain: MADSKEGVLPLTAASTAPISFGFTRTSARRRLADSGDGAGPSPEEKDFLKTVEGRELQSVKPQEAPKELVIPLIQNGHRRQPPARPPGPSTDTGALADGVVSQAVKELIAESKKSLEERENAGVDPTLAIPMIQKGCTPSGEGADSEPRAETVPEEANYEAVPVEAYGLAMLRGMGWKPGEGIGRTFNQVVKPRVNSLRPKGLGLGANLTEAQALTPTGPSRMPRPDEEQEKDKEDQPQGLVPGGAVVVLSGPHRGLYGKVEGLDPDNVRAMVRLAVGSRVVTVSEYYLRPVSQQEFDKNTLDLRQQNGTASSRKTLWNQELYIQQDNSERKRKHLPDRQDGPAAKSEKAAPRSQHWLHRDLRVRFVDNMYKGGQYYNTKMIIEDVLSPDTCVCRTDEGRVLEGLREDMLETLVPKAEGDRVMVVLGPQTGRVGHLLSRDRARSRALVQLPRENQVVELHYDAICQYMGPSDTDDD
partner: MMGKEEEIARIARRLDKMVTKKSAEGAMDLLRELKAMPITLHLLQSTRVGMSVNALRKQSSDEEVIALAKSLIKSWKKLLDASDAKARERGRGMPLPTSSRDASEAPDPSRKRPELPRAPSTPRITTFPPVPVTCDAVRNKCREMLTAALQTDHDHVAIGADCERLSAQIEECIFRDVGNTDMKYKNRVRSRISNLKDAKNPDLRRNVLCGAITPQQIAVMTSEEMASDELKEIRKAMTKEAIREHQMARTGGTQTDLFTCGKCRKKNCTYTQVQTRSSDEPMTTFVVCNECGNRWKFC
B7: Alpha-taxilin (Homo sapiens), P40222 (parent)
chain: MKNQDKKNGAAKQSNPKSSPGQPEAGPEGAQERPSQAAPAVEAEGPGSSQAPRKPEGAQARTAQSGALRDVSEELSRQLEDILSTYCVDNNQGGPGEDGAQGEPAEPEDAEKSRTYVARNGEPEPTPVVNGEKEPSKGDPNTEEIRQSDEVGDRDHRRPQEKKKAKGLGKEITLLMQTLNTLSTPEEKLAALCKKYAELLEEHRNSQKQMKLLQKKQSQLVQEKDHLRGEHSKAVLARSKLESLCRELQRHNRSLKEEGVQRAREEEEKRKEVTSHFQVTLNDIQLQMEQHNERNSKLRQENMELAERLKKLIEQYELREEHIDKVFKHKDLQQQLVDAKLQQAQEMLKEAEERHQREKDFLLKEAVESQRMCELMKQQETHLKQQLALYTEKFEEFQNTLSKSSEVFTTFKQEMEKMTKKIKKLEKETTMYRSRWESSNKALLEMAEEKTVRDKELEGLQVKIQRLEKLCRALQTERNDLNKRVQDLSAGGQGSLTDSGPERRPEGPGAQAPSSPRVTEAPCYPGAPSTEASGQTGPQEPTSARA
partner: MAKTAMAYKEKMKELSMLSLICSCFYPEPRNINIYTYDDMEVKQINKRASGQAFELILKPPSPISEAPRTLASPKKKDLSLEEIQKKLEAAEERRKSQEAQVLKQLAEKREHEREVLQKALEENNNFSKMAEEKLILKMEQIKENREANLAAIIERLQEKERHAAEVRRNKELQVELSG
B8: Elongin-A2 (Homo sapiens), Q8IYF1 (parent)
chain: MAAGSTTLHAVEKLQVRLATKTEPKKLEKYLQKLSALPMTADILAETGIRKTVKRLRKHQHVGDFARDLAARWKKLVLVDRNTRPGPQDPEESASRQRFGEALQDQEKAWGFPENATAPRSPSHSPEHRRTARRTPPGQQRPHPRSHSREPRAERKCPRIAPADSGRYRASPTRTAPLRMPEGPEPAAPGKQPGRGHTHAAQGGPLLCPGCQGQPQGKAVVSHSKGHKSSRQEKRPLCAQGDWHSPTLIREKSCGACLREETPRMPSWASARDRQPSDFKTDKEGGQAGSGQRVPALEEAPDSHQKRPQHSHSNKKRPSLDGRDPGNGTHGLSPEEKEQLSNDRETQEGKPPTAHLDRTSVSSLSEVEEVDMAEEFEQPTLSCEKYLTYDQLRKQKKKTGKSATTALGDKQRKANESKGTRESWDSAKKLPPVQESQSERLQAAGADSAGPKTVPSHVFSELWDLSEAWMQANYDPLSDSDSMTSQAKPEALSSPKFREEAAFPGRRVNAKMPVYSGSRPACQLQVPTLRQQCAQVLRNNPDALSDVGEVPYWVLEPVLEGWRPDQLYRRKKDNHALVRETDELRRNHCFQDFKEEKPQENKTWREQYLRLPDAPEQRLRVMTTNIRSARGNNPNGREAKMICFKSVAKTPYDTSRRQEKSAGDADPENGEIKPASKPAGSSHTPSSQSSSGGGRDSSSSILRWLPEKRANPCLSSSNEHAAPAAKTRKQAAKKVAPLMAKAIRDYKRRFSRR
B9: Tyrosine-protein phosphatase non-receptor type 9 (Homo sapiens), P43378 (parent)
chain: MEPATAPRPDMAPELTPEEEQATKQFLEEINKWTVQYNVSPLSWNVAVKFLMARKFDVLRAIELFHSYRETRRKEGIVKLKPHEEPLRSEILSGKFTILNVRDPTGASIALFTARLHHPHKSVQHVVLQALFYLLDRAVDSFETQRNGLVFIYDMCGSNYANFELDLGKKVLNLLKGAFPARLKKVLIVGAPIWFRVPYSIISLLLKDKVRERIQILKTSEVTQHLPRECLPENLGGYVKIDLATWNFQFLPQVNGHPDPFDEIILFSLPPALDWDSVHVPGPHAMTIQELVDYVNARQKQGIYEEYEDIRRENPVGTFHCSMSPGNLEKNRYGDVPCLDQTRVKLTKRSGHTQTDYINASFMDGYKQKNAYIGTQGPLENTYRDFWLMVWEQKVLVIVMTTRFEEGGRRKCGQYWPLEKDSRIRFGFLTVTNLGVENMNHYKKTTLEIHNTEERQKRQVTHFQFLSWPDYGVPSSAASLIDFLRVVRNQQSLAVSNMGARSKGQCPEPPIVVHCSAGIGRTGTFCSLDICLAQLEELGTLNVFQTVSRMRTQRAFSIQTPEQYYFCYKAILEFAEKEGMVSSGQNLLAVESQ
partner: B3 partner
B10: Notch homolog 2 N-terminal-like protein A (Homo sapiens), Q7Z3S9 (parent)
chain: MCVTYHNGTGYCKCPEGFLGEYCQHRDPCEKNRCQNGGTCVAQAMLGKATCRCASGFTGEDCQYSTSHPCFVSRPCLNGGTCHMLSRDTYECTCQVGFTGKECQWTDACLSHPCANGSTCTTVANQFSCKCLTGFTGQKCETDVNECDIPGHCQHGGTCLNLPGSYQCQCLQGFTGQYCDSLYVPCAPSPCVNGGTCRQTGDFTFECNCLPETVRRGTELWERDREVWNGKEHDEN
partner: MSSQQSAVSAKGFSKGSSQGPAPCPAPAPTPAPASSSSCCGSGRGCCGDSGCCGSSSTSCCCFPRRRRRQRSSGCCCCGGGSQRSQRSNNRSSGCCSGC

Variants of: B1
Details: with acy1_human ACY1, Q03154

Row | effect of a mutation on the interaction | Variant
1 | with no effect | E381D

Variants of: B2
Details: with actn2_human ACTN2, P35609
actn2_human ACTN2, P35609, sequence (P35609 whole entry): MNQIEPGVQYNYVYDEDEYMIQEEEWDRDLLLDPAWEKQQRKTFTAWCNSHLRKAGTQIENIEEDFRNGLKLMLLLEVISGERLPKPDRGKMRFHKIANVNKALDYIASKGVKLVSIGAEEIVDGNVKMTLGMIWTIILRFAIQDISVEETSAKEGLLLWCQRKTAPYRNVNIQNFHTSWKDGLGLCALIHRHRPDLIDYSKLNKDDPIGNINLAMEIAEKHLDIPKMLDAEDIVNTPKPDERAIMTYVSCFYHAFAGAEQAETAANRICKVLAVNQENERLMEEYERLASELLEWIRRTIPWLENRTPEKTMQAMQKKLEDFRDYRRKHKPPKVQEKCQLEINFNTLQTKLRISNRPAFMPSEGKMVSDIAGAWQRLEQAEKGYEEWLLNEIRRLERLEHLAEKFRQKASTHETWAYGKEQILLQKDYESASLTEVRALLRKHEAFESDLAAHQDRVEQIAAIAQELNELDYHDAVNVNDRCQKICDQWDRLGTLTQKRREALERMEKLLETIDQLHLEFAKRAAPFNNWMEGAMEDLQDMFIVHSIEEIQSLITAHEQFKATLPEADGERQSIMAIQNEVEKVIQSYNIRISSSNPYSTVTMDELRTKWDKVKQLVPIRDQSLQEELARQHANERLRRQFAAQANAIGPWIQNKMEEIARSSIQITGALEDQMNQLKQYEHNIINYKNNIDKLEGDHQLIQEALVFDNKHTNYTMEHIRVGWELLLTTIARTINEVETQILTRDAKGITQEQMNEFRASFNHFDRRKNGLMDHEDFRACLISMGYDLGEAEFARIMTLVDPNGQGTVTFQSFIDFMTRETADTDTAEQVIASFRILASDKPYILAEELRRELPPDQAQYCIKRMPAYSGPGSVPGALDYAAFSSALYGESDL

Row | effect of a mutation on the interaction | Variant
2 | with no effect | T279M
3 | with no effect | T245I

Variants of: B3
Details: with creb3_human CREB3, O43889

Row | effect of a mutation on the interaction | Variant
4 | with no effect | G26A
5 | with no effect | P272S

Variants of: B4
Details: with ikzf1_human IKZF1, Q13422
ikzf1_human IKZF1, Q13422, sequence (Q13422 whole entry): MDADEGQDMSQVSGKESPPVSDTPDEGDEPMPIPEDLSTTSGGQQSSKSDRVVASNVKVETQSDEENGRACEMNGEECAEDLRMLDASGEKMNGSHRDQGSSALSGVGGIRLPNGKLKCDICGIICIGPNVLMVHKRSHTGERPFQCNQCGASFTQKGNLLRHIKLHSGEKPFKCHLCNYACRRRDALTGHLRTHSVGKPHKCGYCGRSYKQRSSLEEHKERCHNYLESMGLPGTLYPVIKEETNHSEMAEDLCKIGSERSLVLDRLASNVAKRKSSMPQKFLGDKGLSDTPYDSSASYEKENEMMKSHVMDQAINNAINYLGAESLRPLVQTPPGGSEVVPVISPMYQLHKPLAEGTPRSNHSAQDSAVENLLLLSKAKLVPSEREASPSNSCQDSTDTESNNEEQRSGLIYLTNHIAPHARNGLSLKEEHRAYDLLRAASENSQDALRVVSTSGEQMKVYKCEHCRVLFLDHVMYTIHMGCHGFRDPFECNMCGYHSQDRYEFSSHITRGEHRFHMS

Row | effect of a mutation on the interaction | Variant
6 | with no effect | N226S
7 | with no effect | R213C

Variants of: B5
Details: with zn131_human ZNF131, P52739

Row | effect of a mutation on the interaction | Variant
8 | with no effect | N95K
9 | with no effect | A37S

Variants of: B6
Details: with tcea2_human TCEA2, Q15560

Row | effect of a mutation on the interaction | Variant
10 | with no effect | A129T
11 | with no effect | V393A

Variants of: B7
Details: with stmn2_human STMN2, Q93045

Row | effect of a mutation on the interaction | Variant
12 | with no effect | S514R
13 | with no effect | P541S

Variants of: B8
Details: with traf2_human TRAF2, Q12933
traf2_human TRAF2, Q12933, sequence (Q12933 whole entry): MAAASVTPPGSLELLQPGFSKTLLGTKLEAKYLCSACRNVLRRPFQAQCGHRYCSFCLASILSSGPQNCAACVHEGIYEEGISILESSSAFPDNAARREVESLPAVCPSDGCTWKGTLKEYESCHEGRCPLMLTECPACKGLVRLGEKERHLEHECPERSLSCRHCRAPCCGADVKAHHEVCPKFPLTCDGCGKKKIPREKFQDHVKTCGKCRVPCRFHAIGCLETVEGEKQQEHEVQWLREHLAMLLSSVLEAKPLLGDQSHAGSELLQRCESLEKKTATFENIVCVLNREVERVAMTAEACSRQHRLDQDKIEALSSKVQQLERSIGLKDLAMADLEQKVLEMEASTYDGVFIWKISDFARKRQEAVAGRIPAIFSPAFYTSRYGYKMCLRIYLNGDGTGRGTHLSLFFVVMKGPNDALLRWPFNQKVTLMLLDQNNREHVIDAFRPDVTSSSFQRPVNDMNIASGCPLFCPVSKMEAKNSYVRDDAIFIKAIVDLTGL

Row | effect of a mutation on the interaction | Variant
14 | with no effect | A403S
15 | with no effect | G505R
16 | with no effect | A446T
17 | with no effect | T6S
18 | with no effect | R179P
19 | with no effect | R498Q
20 | with no effect | D302H
21 | with no effect | C254F

Variants of: B9
Details: with creb3_human CREB3, O43889

Row | effect of a mutation on the interaction | Variant
22 | with no effect | R72Q

Variants of: B10
Details: with crct1_human CRCT1, Q9UGL9

Row | effect of a mutation on the interaction | Variant
23 | with no effect | R74Q
